PMC4437028 (2015)

B1: mouse PTPδ Ig1-Fn1 (residues 28-418), splice variant meA9B+ [modified: N-linked glycans] [mouse] / mouse Slitrk2 LRR1 (first leucine-rich repeat of Slit and Trk-like family member 2), wild type [modified: N-linked glycans; N-linked … (parent complex)
chain 1: ETPPRFTRTPVDQTGVSGGVASFICQATGDPRPKIVWNKKGKKVSNQRFEVIEFDDGSGSVLRIQPLRTPRDEAIYECVASNNVGEISVSTRLTVLREDQIPRGFPTIDMGPQLKVVERTRTATMLCAASGNPDPEITWFKDFLPVDTSNNNGRIKQLRSESIGGTPIRGALQIEQSEESDQGKYECVATNSAGTRYSAPANLYVRELREVRRVPPRFSIPPTNHEIMPGGSVNITCVAVGSPMPYVKWMLGAEDLTPEDDMPIGRNVLELNDVRQSANYTCVAMSTLGVIEAIAQITVKALPKPPGTPVVTESTATSITLTWDSGNPEPVSYYIIQHKPKNSEEPYKEIDGIATTRYSVAGLSPYSDYEFRVVAVNNIGRGPASEPVLTQK
chain 2: MLSGVWFLSVLTVAGILQTESRKTAKDICKIRCLCEEKENVLNINCENKGFTTVSLLQPPQYRIYQLFLNGNLLTRLYPNEFVNYSNAVTLHLGNNGLQEIRPGAFSGLKTLKRLHLNNNKLEVLREDTFLGLESLEYLQADYNYISTIEAGAFSKLNKLKVLILNDNLLLSLPSNVFRFVLLTHLDLRGNRLKVMPFAGVLEHIGGIMEIQLEENPWNCTCDLLPLKAWLDTITVFVGEIVCETPFRLHGKDVTQLTRQDLCPRK

Variants of: B1
Test: SPR equilibrium analysis; point at 4 µM PTPδ Ig1-Fn1 (highest concentration); parent: 600; read off a plot

response | Variant
~100 Response unit | chain 2 MLSGVWFLSVLTVAGILQTESRKTAKDICKIRCLCEEKENVLNINCENKGFTTVSLLQPPQYRIYQLFLNGNLLTRLYPNEFVNYSNAVTLHLGNNGLQEIRPGAFSGLKTLKRLHLNNNKLEVLREDTFLGLESLEYLQADYNYISTIEAGAFSKLNKLKVLILNANLLLSLPSNVFRFVLLTHLDLRGNRLKVMPFAGVLEHIGGIMEIQLEENPWNCTCDLLPLKAWLDTITVFVGEIVCETPFRLHGKDVTQLTRQDLCPRK [chain 2 D167A]
~490 Response unit | chain 2 MLSGVWFLSVLTVAGILQTESRKTAKDICKIRCLCEEKENVLNINCENKGFTTVSLLQPPQYRIYQLFLNGNLLTRLYPNEFVNYSNAVTLHLGNNGLQEIRPGAFSGLKTLKALHLNNNKLEVLREDTFLGLESLEYLQADYNYISTIEAGAFSKLNKLKVLILNDNLLLSLPSNVFRFVLLTHLDLRGNRLKVMPFAGVLEHIGGIMEIQLEENPWNCTCDLLPLKAWLDTITVFVGEIVCETPFRLHGKDVTQLTRQDLCPRK [chain 2 R114A]

Further lines, the variant ahead of its results:

Variant | response
chain 2 MLSGVWFLSVLTVAGILQTESRKTAKDICKIRCLCEEKENVLNINCENKGFTTVSLLQPPQYRIYQLFLNGNLLTRLYPNEFVNYSNAVTLHLGNNGLQEIRPGAFSGLKTLKRLHLNNNKLEVLREDTFLGLESLEYLQADYNYISTIEAGAFSKLNKLKVLILNDNLLLSLPSNVFRFVLLTHLALRGNRLKVMPFAGVLEHIGGIMEIQLEENPWNCTCDLLPLKAWLDTITVFVGEIVCETPFRLHGKDVTQLTRQDLCPRK [chain 2 D187A] | ~120 Response unit
chain 2 MLSGVWFLSVLTVAGILQTESRKTAKDICKIRCLCEEKENVLNINCENKGFTTVSLLQPPQYRIYQLFLNGNLLTRLYPNEFVNYSNAVTLHLGNNGLQEIRPGAFSGLKTLKRLHLNNNKLEVLREDTFLGLESLEYLQADYNYISTIEAGAFSKLNKLKVLILNDNLLLSLPSNVFRFVLLTHLDLRGNRLKVMPFAGVLEHIGGIMEIQLEANPWNCTCDLLPLKAWLDTITVFVGEIVCETPFRLHGKDVTQLTRQDLCPRK [chain 2 E215A] | ~210 Response unit
chain 2 MLSGVWFLSVLTVAGILQTESRKTAKDICKIRCLCEEKENVLNINCENKGFTTVSLLQPPQYRIYQLFLNGNLLTRLYPNEFVNYSNAVTLHLGNNGLQEIRPGAFSGLKTLKRLHLNNNKLEVLREDTFLGLESLEYLQADYNYISTIEAGAFSKLNKLKVLILNDNLLLSLPSNVFRFVLLTHLDLRGNRLKVMPFAGVLEHIGGIMEIQLEENPWNCTCDLLPLKAWLDTITVFVGEIVCETPARLAGKDVTQLTRQDLCPRK [chain 2 F247A, chain 2 H250A] | ~460 Response unit
